Experimental data taken from patent publication US6566113B1, “Polypeptide having cellobiohydrolase activity” (Takara Shuzo Co., Ltd., priority 1998, dated 2003).

Legend:
[1] = biological target: Cellobiohydrolase from Thermotoga sp. FjSS-B.1; conditions: cellobiohydrolase of Thermotoga sp. FjSS-B.1; read-out: inhibition constant (Ki) for cellobiose; cited from earlier work
[2] = biological target: polypeptide of the present invention (cellobiohydrolase, open reading frame PH1171) (Pyrococcus horikoshii, UniProt O58925); test: Inhibition of pNPC-degrading activity by glucose, cellobiose and various reagents; type: biochemical, Pyrococcus horikoshii OT3; conditions: for inhibition of pNPC-degrading activity by dithiothreitol: up to 10 mM
[3] = pH and heat stability: remaining CMC-degrading / cellobiohydrolase activity after heating; type: biochemical
Procedure: 25 μl of the polypeptide solution of the present invention and 25 μl of one of the buffers prepared in Example 3-(1) were mixed together. The mixture was heated at 95° C. for 10 minutes. 50 μl of 1% CMC solution in 0.1 M MES-NaOH buffer (pH 6.0) was added to 50 μl of a 50-fold dilution of the heated mixture with water. The mixture was reacted at 98° C. for 20 minutes. The amount of reducing sugar contained in a supernatant obtained by centrifuging the reaction mixture was measured according to the Park and Johnson method, and the CMC-degrading activity was calculated.
CMC was dissolved in 0.1 M MES-NaOH buffer (pH 6.0) to prepare a 1% CMC solution (pH 6.0). 50 μl of the MES buffer was added to 50 μl of the polypeptide solution of the present invention. The mixture was heated at 95° C. for 0, 1, 5 or 24 hours. 50 μl of the 1% CMC solution was added to 50 μl of a 50-, 200- or 500-fold dilution of a supernatant obtained by centrifuging the heated mixture with the MES buffer. The mixture was reacted at 98° C. for 20 minutes. The amount of reducing sugar contained in the reaction mixture was measured according to the Park and Johnson method to determine the CMC-degrading activity.

[4] = pNPC-degrading activity on synthetic substrate; type: biochemical; conditions: 5 mM pNPC, 98° C., 20 minutes, pH 6.0
Procedure: 50 μl of 10 mM pNPC solution in 0.1 M MES-NaOH buffer (pH 6.0) was added to 50 μl of the polypeptide solution of the present invention or a 2-, 5- 10- or 20-fold dilution thereof with 0.1 M MES-NaOH buffer (pH 6.0). The mixture was reacted at 98° C. for 20 minutes. Absorbance at 405 nm of a supernatant obtained by centrifugation was measured to determine the pNPC-degrading activity based on the amount of released p-nitrophenol (pNP).

[5] = 4-MUC-degrading activity, specific activity of purified polypeptide; type: biochemical; conditions: 98° C., pH 6.0, 20 minutes
Procedure: A supernatant obtained by centrifuging the heated supernatant was subjected to anion exchange chromatography using HiTrap Q column (Pharmacia). The sample was applied to two 5 ml HiTrap Q columns connected in series. Elution was carried out using a linear gradient in 20 minutes from 50 mM MES-NaOH buffer (pH 6.0) to the same buffer containing 200 mM NaCl at a flow rate of 2 ml/minute. 50 μl of 6 mM 4-MUC solution in 100 mM MES-NaOH buffer (pH 6.0) was added to 50 μl of one of the serial dilutions of the respective fractions. The mixture was reacted at 98° C. for 20 minutes. Fluorescence value was measured at an excitation wavelength of 355 nm and an emission wavelength of 460 nm. The 4-MUC-degrading activity was calculated based on the amount of released 4-MU.
2 ml of the active fraction from the hydrophobic column chromatography was desalted by ultrafiltration, lyophilized and then hydrolyzed in the presence of gas-phase HCl at 135° C. for 3 hours. The hydrolysate was dissolved in 100 μl of water. […] The polypeptide corresponding to 60 mU of the 4-MUC-degrading activity was subjected to the amino acid analysis. Thus, the specific activity was determined to be 17.0 U/mg.

[6] = Identification of hydrolysis products by silica gel thin-layer chromatography; type: biochemical
Procedure: The activity of hydrolyzing cellulose of the expressed polypeptide was identified as follows. Specifically, the expressed polypeptide solution was allowed to act on various substrates. Products were then identified on thin-layer chromatography.
75 μl of the expressed polypeptide solution was added to 75 μl of the phosphoric acid-swollen cellulose. The mixture was reacted at 98° C. for 8 hours. 60 μl of acetonitrile was added to the equal volume of the reaction mixture and mixed. A supernatant obtained by centrifugation was evaporated under reduced pressure to dryness. The residue was dissolved in 10 μl of water. 2 μl of the solution was subjected to silica gel thin-layer chromatography. Two rounds of development were carried out using silica gel 60F254 (Merck) as a thin-layer plate and ethanol:butanol:water=5:5:1 as a solvent for development. Orcinol-sulfuric acid reagent was sprayed onto the thin-layer plate after development and the plate was heated using a hot plate to observe the spots. […]
Reactions were carried out as described above using oligosaccharides as substrates except that the dilution rate of the expressed polypeptide solution was 10 and the reaction time was 2 hours. Supernatants obtained by centrifuging the reaction mixtures were analyzed on silica gel thin-layer chromatography as described above.

[7] = CMC-degrading activity (reducing ends, Park and Johnson method); type: biochemical
Procedure: When cellulose is degraded using a cellulose hydrolase such as endoglucanase or cellobiohydrolase, reducing ends of glucose residues are newly generated. Then, increase in the amount of reducing end in a unit reaction time was measured according to the Park and Johnson method using carboxymethylcellulose (CMC) as a substrate in order to confirm whether or not a polypeptide having an activity of hydrolyzing cellulose which newly generates reducing ends of glucose residues existed in the Escherichia coli extract.
A CMC solution was prepared by dissolving CMC (Sigma) in 100 mM sodium citrate buffer (pH 5.0) at a concentration of 1%. […] Absorbance at 690 nm was then measured. The amount of reducing end was determined as the amount of corresponding glucose based on a calibration curve prepared using glucose at a known concentration. […]
50 μl of a 50-fold dilution of the polypeptide solution of the present invention with water, 25 μl of a 2% CMC aqueous solution and 25 μl of one of the above-mentioned buffers were mixed together. […] The amount of reducing sugar contained in a supernatant obtained by centrifuging the reaction mixture was measured according to the Park and Johnson method, and the CMC-degrading activity was calculated. […]

## O=C[C@H](O)[C@@H](O)[C@H](O[C@@H]1O[C@H](CO)[C@@H](O)[C@H](O)[C@H]1O)[C@H](O)CO [cellobiose]
[1]
  Ki: 200 µM

## O[C@H](CS)[C@H](O)CS (racemic) [DTT, dithiothreitol]
[2]; 5 mM pNPC, 98° C., pH 6.0
  inhibition of pNPC-degrading activity by dithiothreitol: not inhibited
[2]; 5 mM pNPC, 98° C., pH 6.0, listed as dithiothreitol
  inhibition of pNPC-degrading activity by dithiothreitol: Almost no inhibition

## O=C(O)CN(CCN(CC(=O)O)CC(=O)O)CC(=O)O [EDTA, ethylenediaminetetraacetic acid]
[2]; pH 6, read-out: inhibition of pNPC-degrading activity
  inhibition at 1000 µM: ~50%
[2]; reagent at 1 mM, 5 mM pNPC, 98° C., pH 6.0
  inhibition of pNPC-degrading activity: about 50%

B1: polypeptide of the present invention: polypeptide of SEQ ID NO:1 with thermostable cellobiohydrolase activity, expressed from open reading frame PH1171 of Pyrococcus horikoshii OT3 (protein)
chain: ENTTYQTPTGIYYEVRGDTIYMINVTSGEETPIHLFGVNWFGFETPNHVVHGLWKRNWEDMLLQIKSLGFNAIRLPFCTESVKPGTQPIGIDYSKNPDLRGLDSLQIMEKIIKKAGDLGIFVLLDYHRIGCTHIEPLWYTEDFSEEDFINTWIEVAKRFGKYWNVIGADLKNEPHSVTSPPAAYTDGTGATWGMGNPATDWNLAAERIGKAILKVAPHWLIFVEGTQFTNPKTDSSYKWGYNAWWGGNLMAVKDYPVNLPRNKLVYSPHVYGPDVYNQPYFGPAKGFPDNLPDIWYHHFGYVKLELGYSVVIGEFGGKYGHGGDPRDVIWQNKLVDWMIENKFCDFFYWSWNPDSGDTGGILQDDWTTIWEDKYNNLKRLMDSCSKSSSSTQSVIRSTTPTKSNTSKKICGPAILIILAVFSLLLRRAPR
modifications: Pyrococcus horikoshii OT3
[3]; 95° C. for 10 minutes at pH 5 to 7
  activity after heating in the absence of a substrate: not decreased
[3]; 95° C. for 24 hours, pH 6.0
  retained CMC-degrading activity after heating: about 90%
[3]; 95° C., pH 6, heating for additional 24 hours
  remaining activity after heating: About 80%
[3]; in the presence of a substrate at pH 6 at 95° C. for 5 hours
  retained activity after heating: about 90%
[3]; treatment at 75° C. for 20 minutes
  retained cellobiohydrolase activity after heat treatment: ≥ 80%
[3]; treatment at 95° C. for 10 minutes
  retained cellobiohydrolase activity after heat treatment: ≥ 80%
[3]; treatment at 95° C. for 5 hours
  retained cellobiohydrolase activity after heat treatment: ≥ 80%
[4]
  pNPC-degrading activity versus amount of polypeptide: increased depending on the concentration
[5]
  specific activity (4-MUC-degrading activity): 17.0 U/mg
[6]; 98° C. for 8 hours
  product from phosphoric acid-swollen cellulose (TLC): generation of cellobiose
[6]; cellotriose, cellotetraose, cellopentaose, 10-fold dilution, 98° C., 2 hours, pH 6.0
  product from cellooligosaccharides (TLC): principal degradation product was cellobiose
[7]; 2.5 M NaCl
  activity relative to that in the presence of 0.5 M NaCl: about 60%
[7]; absence of NaCl
  activity relative to that in the presence of 0.5 M NaCl: about 80%
